# Substitutions are numbered along the chain they refer to.
# Key:
# [1] = biological target: T1, Dda 1993 C114M C114M (Enterobacteria phage T4) (UniProt P32270); details: nanopore translocation; background mutations not given
# T1 sequence: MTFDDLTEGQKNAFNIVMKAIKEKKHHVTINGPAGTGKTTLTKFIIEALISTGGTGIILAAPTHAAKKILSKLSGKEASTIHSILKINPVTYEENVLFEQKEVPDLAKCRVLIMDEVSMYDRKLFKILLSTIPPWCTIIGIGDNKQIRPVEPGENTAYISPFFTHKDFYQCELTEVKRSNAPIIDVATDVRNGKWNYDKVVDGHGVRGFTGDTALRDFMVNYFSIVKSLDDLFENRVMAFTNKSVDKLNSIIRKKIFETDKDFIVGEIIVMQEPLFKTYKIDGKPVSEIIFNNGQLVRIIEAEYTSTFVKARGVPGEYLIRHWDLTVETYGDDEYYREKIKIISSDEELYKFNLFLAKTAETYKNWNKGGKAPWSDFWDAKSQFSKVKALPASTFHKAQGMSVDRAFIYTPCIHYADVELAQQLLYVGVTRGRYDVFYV
# [2] = biological target: T2, Dda 1993 K358E K358E (Enterobacteria phage T4) (UniProt P32270); details: nanopore translocation, FLO-MIN106; background mutations not given
# T2 sequence: T1 sequence with M114C, K358E
# [3] = biological target: T3, Dda 1993 K358I K358I (Enterobacteria phage T4) (UniProt P32270); details: nanopore translocation, FLO-MIN106; background mutations not given
# T3 sequence: T1 sequence with M114C, K358I
# [4] = biological target: T4, Dda 1993 K358L K358L (Enterobacteria phage T4) (UniProt P32270); details: nanopore translocation, FLO-MIN106; background mutations not given
# T4 sequence: T1 sequence with M114C, K358L
# [5] = biological target: T5, Dda 1993 K358M K358M (Enterobacteria phage T4) (UniProt P32270); details: nanopore translocation, FLO-MIN106; background mutations not given
# T5 sequence: T1 sequence with M114C, K358M
substance,measurement,setting,value
barcoded 3.6 kb DNA analyte ligated to sequencing Y adaptor,activity (bps speed delta vs control),[1],81.8
same,activity (bps speed delta vs control),[2],-53.9
same,activity (bps speed delta vs control),[3],-40.2
same,activity (bps speed delta vs control),[4],-42.7
same,activity (bps speed delta vs control),[5],-48.6

# From patent US20250382602
